Non-standard residues stand in square brackets, D forms with d. No end group written: not given here. *: point of attachment. Biotin = O=C1N[C@H]2[C@H](CS[C@H]2CCCCC(=O)*)N1; Arg(Me2a) = CN(C)C(=N)NCCC[C@H](N)C(=O)O
Target: T1, Target peptide (meEGFR R198/R200) (human, cysteine pairing not given here)
T1 chain: K(Biotin)QCSG[Arg(Me2a)]C[Arg(Me2a)]GKSPSDC-NH2

B1: Example 2 (antibody, V domains shown)
VH: QVQLQESGPGLVKPSETLSLTCSVSGDSITRSGYYWAWVRQSPGKGLEYIGSISYSGTTYYNPSLKSRVTISVDTSKNQFSLKLSSVTAADTAVYYCAREWNGLDVWGKGTMVTVSS
VL: LNFMLTQPHSVSESPGKTVTISCTRSSGSIASNYVQWYQQRPGSSPTTVIYEDNQRPFGVPDRFSGSIDSSSNSASLTISGLKTEDEADYYCQSYDSGHQIFGGGTKLTVLG
- EC50: 0.0359 nM

B2: Example 3 (antibody, V domains shown)
VH: QVQLQESGPGLVKPSGTLSLTCAVSGDSISSSSYYWGWIRQPPGKGLEWIGSIYYSGSTYYNPSLKSRVTISVDTSKNQFSLKLSSVTAADTAVYYCAREWNGLDVWGKGTLVTVSS
VL: LNFMLTQPHSVSESPGKTVTISCTGSSGSIASNYVQWYQQRPGSAPTTVIYEDNQRPSGVPDRFSGSIDSSSNSASLTISGLKTEDEADYYCQSYDRGNTEVMFGGGTKVTVLG
- EC50: 0.0258 nM

Source: patent publication US20260347481 (published 2026)
